Measured values published in patent US20190175730A1 (Five Prime, published 2019).
Blank lines part the entries; values can stand above or below the binder they belong to.

Target: T1, human FGFR2IIIb expressed on Ba/F3 cells (human, UniProt P21802 22-821)
T1 chain: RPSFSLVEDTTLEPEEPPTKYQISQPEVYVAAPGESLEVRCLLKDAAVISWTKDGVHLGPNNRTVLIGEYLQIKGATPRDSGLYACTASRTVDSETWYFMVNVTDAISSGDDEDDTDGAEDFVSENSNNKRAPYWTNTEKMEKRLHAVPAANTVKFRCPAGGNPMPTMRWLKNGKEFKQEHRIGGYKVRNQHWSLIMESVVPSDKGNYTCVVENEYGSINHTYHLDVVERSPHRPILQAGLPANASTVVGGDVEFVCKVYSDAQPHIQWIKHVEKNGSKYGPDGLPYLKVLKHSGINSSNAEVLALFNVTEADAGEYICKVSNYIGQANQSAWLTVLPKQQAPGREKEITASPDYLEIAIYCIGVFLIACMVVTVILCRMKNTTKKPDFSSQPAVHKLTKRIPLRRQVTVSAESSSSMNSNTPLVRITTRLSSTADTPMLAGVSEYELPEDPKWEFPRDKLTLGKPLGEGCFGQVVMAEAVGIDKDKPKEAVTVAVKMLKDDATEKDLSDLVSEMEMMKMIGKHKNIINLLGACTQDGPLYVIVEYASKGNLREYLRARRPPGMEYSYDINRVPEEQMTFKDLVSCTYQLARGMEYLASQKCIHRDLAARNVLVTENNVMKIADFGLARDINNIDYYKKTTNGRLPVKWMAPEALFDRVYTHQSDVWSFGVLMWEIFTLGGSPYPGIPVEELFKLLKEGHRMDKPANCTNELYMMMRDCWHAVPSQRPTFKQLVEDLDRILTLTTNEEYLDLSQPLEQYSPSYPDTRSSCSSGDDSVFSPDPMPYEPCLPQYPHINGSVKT
Experiment: cell-based or functional assay

EC50 (ng/mL) of ADCC, LDH release: 2 ng/mL
B1: afucosylated monoclonal antibody αFGFR2bA (antibody, human IgG1, kappa)
heavy: not shown
light: DIQMTQSPSSLSASVGDRVTITCKASQGVSNDVAWYQQKPGKAPKLLIYSASYRYTGVPSRFSGSGSGTDFTFTISSLQPEDIATYYCQQHSTTPYTFGQGTKLEIKRTVAAPSVFIFPPSDEQLKSGTASVVCLLNNFYPREAKVQWKVDNALQSGNSQESVTEQDSKDSTYSLSSTLTLSKADYEKHKVYACEVTHQGLSSPVTKSFNRGEC
modifications: Asn297 glycan lacks fucose (afucosylated; produced in FUT8-lacking Potelligent CHOK1SV cells)

EC50 (ng/mL) of ADCC, LDH release: 16 ng/mL
B2: fucosylated monoclonal antibody αFGFR2bF (antibody, human IgG1, kappa)
heavy: not shown
light: B1 light
modifications: Asn297 glycan contains fucose (fucosylated)
